Assay results taken from patent publication US20220356229A1 (published 2022).

Each binder was assayed against SARS-CoV Spike protein (SARS-CoV, UniProt P59594 14-1190).

| Binder | bead binding signal (median fluorescence, fold over isotype control) |
| --- | --- |
| antibody 333 (antibody, V domains shown) VH: QVHLVESGGGVVLPGRSLRLSCSASQFIFSNYDMHWVRQSPGMGLEWVAGISSDGSDKYYIDSVRGRFTISRDNAKNTLFLQMNSLTTEDTAVYSCAKGGGKFGQYWGRGTLVTVSS VL: AIQMTQSPSSLSASVGDRVTITCRASQVIRNDLAWFQQKPGEAPNLLVYSASNLQSGVPSRFSGSGSGTDFTLTISSLQPEDFATYYCLQDYSYPYTFGQGTKLDMK | 1.21 fold over isotype control |
| antibody 337 (antibody, V domains shown) VH: QVQLVESGGGVVQPGRSLRLSCAASGFTFSSYGMHWVRQAPGKGLEWVAIIWYDGSNKYYADSVKGRFTISRDNSKNTLYLQMNSLRAEDTAVYYCAKDTGGYCSGGSCYPESYFDYWGQGTLVTVSS VL: SYVLTQPPSVSVAPGKTARITCGGNNIGSKSVHWYQQKPGQAPVLVIYYDSDRPSGIPERFSGSNSGNTATLTINRVEAGDEADYYCQVWDGSSDHLYVFGTGTKVTVL | 439 fold over isotype control |
| antibody 342 (antibody, V domains shown) VH: EVQLVQSGAEVKKPGATVKISCKVSGYTFTDYYMHWVQQAPGKGLEWMGLVDPEDGETIYAEKFQGRVTITADTSTDTAYMELSSLRSEDTAVYYCATGGVSVWFREFPASYSGSYLGYWGQGTLVTVSS VL: not shown | 1.16 fold over isotype control |
| antibody 363 (antibody, V domains shown) VH: EVQLLESGGGLVQPGGSLRLSCAASGFTFSTYAMSWVRQAPGKGLEWVSAISGSGGSTYYADSVKGRFTISRDNSKNTLYLQMNSLRAEDTAVYYCASGYSPDYWGQGTLVTVSS VL: not shown | 1.09 fold over isotype control |
| antibody 340 (antibody, V domains shown) VH: QVQLVQSGAEVKKPGASVKVSCKASGYTFTSYDINWVRQATGQGLEWMGWMNPNSGNTGYAQKFQGRVTMTRNTSISTAYMELSSLRSEDTAVYYCARGRYCTGGVCWGDWYFDLWGRGTLVTVSS VL: QSVLTQPPSVSGAPGQRVTISCTGSSSNIGAGYDVHWYQQLPGTAPKFLIYGNSNRPSGVPDRFSGSKSGTSASLAITGLQAEDEADYYCQSYDSSLSGPVFGGGTKLTVL | 1.26 fold over isotype control |
| antibody 351 (antibody, V domains shown) VH: HVQLVESGGGVVQPGRSLRLSCAASGFISRNYGMEWVRQAPGQGLEWVAGIWYDGSKKYYADSVKGRFTISRDTSKNTLFLQMDSLRAEDTAVFYCATATKTFCGGDCPPGGMDVWGQGTTVTVST VL: SYVLTQPPSVSVAPGKTAWITCVGNNIESESVHWYQQRPGQAPVLVIYYDSDRPSGIPERFFGSNSGNTATLTISRVEAGDEADYYCQVWDSNSDLMVFGGGTKLTVL | 1.08 fold over isotype control |
| antibody 366 (antibody, V domains shown) VH: QVQLVESGGGVVQPGRSLRLSCAASGFTFSSYAMHWVRQAPGKGLEWVAVISYDGSNKYYADSVKGRFTISRDNSKNTLYLQMNSLRAEDTAVYYCARGLVGYNWFDPWGQGTLVTVSS VL: DIQMTQSPSSVSASVGDRVTITCRASQGISSWLAWYQQKPGKAPKLLIYAASSLQSGVPSRFSGSGSGTDFTLTISSLQPEDFATYYCQQANSFTFGPGTKVDIK | 1.23 fold over isotype control |
| antibody 372 (antibody, V domains shown) VH: QVQLVESGGGVVQPGRSLRLSCAASGFTFSSYAMHWVRQAPGKGLEWVAVISYDGSNKYYADSVKGRFTISRDNSKNTLYLQMNSLRAEDTAVYYCARDLGTSALLWFGELFLNYGMDVWGQGTTVTVSS VL: QSALTQPRSVSGSPGQSVTISCTGTSSDVGGYNYVSWYQQHPGKAPKLMIYDVSKRPSGVPDRFSGSKSGNTASLTISGLQAEDEADYYCCSYAGSPILVFGGGTKLTVL | 1.08 fold over isotype control |
| antibody 345 (antibody, V domains shown) VH: QVQLQESGPGLVKPSQTLSLTCTVSGGSISSGDYYWSWIRQPPGKGLEWIGYIYYSGSTYYNPSLKSRVTISVDTSKNQFSLKLSSVTAADTAVYYCARVGMVDNWNFEGNWFDPWGQGTLVTVSS VL: QSALTQPRSVSGSPGQSVTISCTGTSSDVGGYNYVSWYQQHPGKAPKLMIYDVSKRPSGVPDRFSGSKSGNTASLTISGLQAEDEADYYCCSYAGSVVFGGGTKLTVL | 1.09 fold over isotype control |
| antibody 329 (antibody, V domains shown) VH: EVQLVESGGGLVQPGGSLRLSCAASGFTFSSYWMHWVRQAPGKGLVWVSRINSDGSSTSYADSVKGRFTISRDNAKNTLYLQMNSLRAEDTAVYYCAREGIVATITLDYWGQGTLVTVSS VL: not shown | 2.46 fold over isotype control |
| antibody 320 (antibody, V domains shown) VH: QVQLVQSGAEVKKPGASVKVSCKASGYTFTSYGISWVRQAPGQGLEWMGWISAYNGNTNYAQKLQGRVTMTTDTSTRTAYMELRSLRSDDTAVYYCARVGCYYDSSGYSCAENFQHWGQGTLVTVSS VL: QSVLTQPPSVSGAPGQRVTISCTGSSSNIGAGYDVHWYQQLPGTAPKLLIYGNSNRPSGVPDRFSGSKSGTSASLAITGLQAEDEADYYCQSYDSSLSALFGGGTKLTVL | 989 fold over isotype control |
| antibody 348 (antibody, V domains shown) VH: QVQLVQSGSELKKPGASVKVSCKASGYTFTSYAMNWVRQAPGQGLEWMGWINTNTGNPTYAQGFTGRFVFSLDTSVSTAYLQISSLKAEDTAVYYCARDHELPNTSSWFGHFEYWGQGTLVTVSS VL: not shown | 1.16 fold over isotype control |
| antibody 343 (antibody, V domains shown) VH: QVQLVESGGDVVQPGTSLRLSCAASGFTFNNYGFHWVRQAPGKGLEWVALISSDGASTHYADSVKGRFTISRDSSVNTLYLQMNSLSLEDTAVYYCATGHCGTTCYYFDYWGQGTLVSVSS VL: DIQVTQSPSYLSASVGDRVTITCRASQTISTFLQWYQQKVGKAPKLLIYAASTLQSGVPSRFSGSGSGTDFSLTISSLQPEDFATYYCQQSYSAPLSFGGGTKVEIK | 1.19 fold over isotype control |
| antibody 323 (antibody, V domains shown) VH: QVQLVQSGAEVKKPGASVKVSCKVSGYTLTELSMHWVRQAPGKGLEWMGGFDPEDGETIYAQKFQGRVTMTEDTSTDTAYMELSSLRSEDTAVYYCATSTIFAPGGWFDPWGQGTLVTVSS VL: QSALTQPASVSGSPGQSITISCTGTSSDVGSYNLVSWYQQHPGKAPKLMIYEVSKRPSGVSNRFSGSKSGNTASLTISGLQAEDEADYYCCSYAGSTHYVFGTGTKVTVL | 1.29 fold over isotype control |
| antibody 324 (antibody, V domains shown) VH: QVQLQESGPGLVKPSGTLSLTCAVSGGSISSSNWWSWVRQPPGKGLEWIGEIYHSGSTNYNPSLKSRVTISVDNSKNQFSLKLSSVTAADTAVYYCARESVAAAGISYYYYGMDVWGQGTTVTVSS VL: EIVLTQSPGTLSLSPGERATLSCRASQSVSGRYLAWYQQKPGQAPRLLIYGASSRATGIPDRFSGSGSGTDFTLTISRLEPEDFAVYYCQHYGSSPGTFGQGTRLEIK | 1.14 fold over isotype control |
| antibody 328 (antibody, V domains shown) VH: QVQLQESGPGLVKPSGTLSLTCAVSGGSISSSNWWSWVRQPPGKGLEWIGEIYHSGSTNYNPSLKSRVTISVDNSKNQFSLKLSSVTAADTAVYYCARESVAAAGISYYYYGMDVWGQGTTVTVSS VL: DIQMTQSPSSLSASVGDRVTITCRASQGIRNDLGWYQQKPGKAPKRLIYAASSLQSGVPSRFSGSGSGTEFTLTVSGLQPEDFATYYCLQYNSSPLTFGGGTKVEIK | 1.22 fold over isotype control |
| antibody 332 (antibody, V domains shown) VH: QVTLRESGPALVKPTQTLTLTCTFSGFSLSTSGMCVSWIRQPPGKALEWLALIDWDDDKYYSTSLKTRLTISKDTSKNQVVLTMTNMDPVDTATYYCARIHDDILTGYHYVDYWGQGTLVTVSS VL: not shown | 0.99 fold over isotype control |
| antibody 367 (antibody, V domains shown) VH: QVQLVQSGAEVKKPGASVKVSCKASGYTFTGYYIHWVRQAPGQGLEWMGWINPNSGGTIYAQKFQGRVTMTRDTSISTAYMELSRLTSDDTAVYSCAREPYYDILTGYYAPRRYFDYWGQGTLVTVSS VL: QSALTQPASVSGSPGQSITISCTGTSSDVGSYNYVSWYLQHPGKAPKLMIYDVSNRPSGVSNRFSGSKSGNTASLTISGLQAEDEADFYCSSYTSRSTYVFGTGTKVTVL | 1.08 fold over isotype control |
| antibody 349 (antibody, V domains shown) VH: EVQLVQSGAEVKKPGATVKISCKVSGYTFTDYYMHWVQQAPGKGLEWMGLVDPEDGETIYAEKFQGRVTITADTSTDTAYMELSSLRSEDTAVYYCATENKVPTIIAAAGTRDYYYYGMDVWGQGTTVTVSS VL: not shown | 1.12 fold over isotype control |
| antibody 331 (antibody, V domains shown) V domain 1: QITLKESGPTLVKPTETLTLTCSFSGFSLTKTGEAAGWIRQAPGRALEWVTVIFWDDDKRYSPSLQNRISVTKDTSKNQVVLRMTNVARFDTGTYFCWAMGGPGKEYFGQGTLVAVSS V domain 2: QSVLTQPPSVSGAPGQRVTISCTGTSSSIGPYSDVHWYQHVSGKAPRLLIFGNSNRPSGVPDRFSGSKSGTSASLVIAGLQAEDEADYYCQSYDSSLGEIYVFGTGTTVTVL | 1.34 fold over isotype control |
| antibody 368 (antibody, V domains shown) V domain 1: QITLKESGPTLVKPTETLTLTCAFSGFSLTKTGEAAGWIRQAPGRALEWVTVIFWDDDKRYSPSLQNRLTVTKDTSKNVVVLTMTNVDPVDTATYFCWAMGGPGKEFFGQGTRVAVSS V domain 2: QSVLTQPPSVSGAPGQRVTVSCTGTSSSIGPYSDVHWYQHIPGKAPRLLIFGTSNRPSGVPARFSGSKSGSSASLVIAGLQAEDEADYYCQSYDSSLGEIYVFGTGTTVTVL | 1.09 fold over isotype control |
| antibody 339 (antibody, V domains shown) V domain 1: QITLKESGPTLVKPTETLTLTCSFSGFSLTRTGEAAGWIRQAPGRALEWVTVIFWDDDKRYSPSLQSRLTVTKDTSKNQVVLTMTNVARFDTATYFCWAMGGPGKEYFGQGTQVAVSS V domain 2: QSVLTQPPSVSGAPGQRVTISCTGTSSSIGPYSDVHWYQHVSGKAPRLLIFGNSNRPSGVPDRFSGSKSGTSASLVIAGLQAEDEADYYCQSYDSSLGEIYVFGTGTTVTVL | 1.27 fold over isotype control |
